Results: publication PMC4383634, “Dual-Specificity Anti-sigma Factor Reinforces Control of Cell-Type Specific Gene Expression in Bacillus subtilis” (PLoS Genetics, 2015)

B1: CsfB-StrepII-tagged protein (natural protein, B. subtilis, UniProt P37534 1-64, looked up)
chain: MDETVKLNHTCVICDQEKNRGIHLYTKFICLDCERKVISTSTSDPDYAFYVKKLKSIHTPPLYS
notes: CsfB (Gin), anti-sigma factor of B. subtilis; source: E. coli, overproduced and partially purified; not shown: Strep II tag, C-terminal, kept
B2: His6-CsfB (natural protein, B. subtilis, UniProt P37534 1-64, looked up)
chain: B1 chain
notes: CsfB (Gin), anti-sigma factor of B. subtilis; the plasmid is described in S1 Text; also called purified CsfB; source: E. coli, overproduced, purified (Ni-NTA, Superdex 75); not shown: His6, N-terminal, kept

Experiments:
Conditions in all cases: both partners purified
GST-σ^(E 30–141) = biological target: T1, GST-σ^(E 30–141) (B. subtilis, UniProt P06222 30-141); assay: pull-down; GST or GST-σ^E fusions on glutathione beads incubated with CsfB-Strep II (100 nM); after washing, eluted proteins immunoblotted with anti-Strep II tag antibody
T1 construct: also called fragment c; regions 2.1 through 2.4; source: E. coli, overproduced and partially purified; not shown: GST, N-terminal, kept
T1 sequence (looked up): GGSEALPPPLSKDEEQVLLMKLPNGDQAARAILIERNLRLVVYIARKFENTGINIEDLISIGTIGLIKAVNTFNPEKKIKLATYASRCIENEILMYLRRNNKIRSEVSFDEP

GST-σ^(E 30–172) = biological target: T2, GST-σ^(E 30–172) (B. subtilis, UniProt P06222 30-172); assay: as above
T2 construct: σ^E of B. subtilis, residues 30-172, regions 2.1 through 3.1; also called fragment d; regions 2.1 through 3.1; source: E. coli, overproduced and partially purified; not shown: GST, N-terminal, kept
T2 sequence (looked up): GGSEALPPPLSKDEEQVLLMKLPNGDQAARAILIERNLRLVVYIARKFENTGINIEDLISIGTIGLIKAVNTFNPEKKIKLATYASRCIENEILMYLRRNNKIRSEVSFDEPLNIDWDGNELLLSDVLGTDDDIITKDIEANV

[1] = biological target: T3, GST-σ^E fusion protein, lacking its pro region (sigma fragment a) (B. subtilis, UniProt P06222 30-239); assay: as above
T3 construct: source: E. coli, overproduced and partially purified; not shown: GST, N-terminal, kept
T3 sequence (looked up): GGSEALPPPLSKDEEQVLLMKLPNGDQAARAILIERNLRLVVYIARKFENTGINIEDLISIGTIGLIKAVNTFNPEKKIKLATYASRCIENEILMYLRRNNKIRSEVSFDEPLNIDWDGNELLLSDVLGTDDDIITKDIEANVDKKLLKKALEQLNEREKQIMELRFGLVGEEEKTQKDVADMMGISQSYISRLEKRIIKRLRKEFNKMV

[2] = biological target: T4, σ^E, untagged, lacking its pro-sequence (B. subtilis, UniProt P06222 30-239); assay: pull-down; Ni2+-NTA affinity chromatography: His6-CsfB held on the column, untagged purified σ^E or σ^K applied, eluted with an imidazole buffer, SDS-PAGE and Coomassie staining
T4 construct: printed molecular weight 29 kDa; a tag was perhaps removed; also called purified σ^E; source: E. coli, overproduced, purified
T4 sequence (looked up): T3 sequence (looked up)

| Binder | binding result (GST-σ^(E 30–141)) | binding result (GST-σ^(E 30–172)) | binding result [1] | binding result [2] |
| --- | --- | --- | --- | --- |
| B1 | binds | binds | binds |  |
| B2 |  |  |  | binds |
